The numbers were not newly measured in publication PMC12023029, which cites them from elsewhere.

In the series the target is His50 (UniProt position 50, KEGVVHGVATV). Nature of the series: NMR (per title of cited reference 59). Conditions: free monomer, disordered.

As to “alpha-synuclein (aSyn) (Homo sapiens (inferred; the article does not name the species and discusses Parkinson's disease patients))”, the pKa (usually the negative logarithm of the acid dissociation constant) is on record as 6.5 (150 mM salt, high salt) and 6.8 (low salt, article gives '4' mM as the lower end of the salt change).
